Laboratory results reported in article PMC6628566.

Molecular target: CX3CR1 (UniProt P49238)
Chain of UniProt P49238 (P49238 whole entry): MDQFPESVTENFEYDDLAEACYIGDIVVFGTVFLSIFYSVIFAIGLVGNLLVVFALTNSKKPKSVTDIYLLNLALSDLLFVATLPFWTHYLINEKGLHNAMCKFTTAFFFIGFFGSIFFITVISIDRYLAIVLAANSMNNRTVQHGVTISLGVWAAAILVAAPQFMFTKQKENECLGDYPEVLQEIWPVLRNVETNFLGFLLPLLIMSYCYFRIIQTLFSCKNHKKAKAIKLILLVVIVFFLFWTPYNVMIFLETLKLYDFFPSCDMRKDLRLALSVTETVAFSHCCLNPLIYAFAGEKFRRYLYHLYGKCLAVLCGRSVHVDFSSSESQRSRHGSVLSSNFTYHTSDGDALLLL

How did the fold decrease in receptor binding affinity against sFKN turn out when “chemokine domain-only peptide of fractalkine (ckFKN) (domain or fragment)” was run?
The fold decrease in receptor binding affinity against sFKN was 10 fold.
